Experimental data as given in publication PMC2175344.

Key:
Assay in all cases: fluorescence anisotropy
[1] = biological target: APOBEC3G (A3G) (Homo sapiens, UniProt Q9HC16 1-384)
[2] = biological target: HIV-1 reverse transcriptase (RT) (HIV-1, UniProt P04585;P04585 588-1147;588-1027)
[3] = biological target: HIV-1 nucleocapsid protein (NC) (HIV-1, UniProt P12493 378-432)

APOBEC3G (A3G), sequence (Q9HC16 whole entry): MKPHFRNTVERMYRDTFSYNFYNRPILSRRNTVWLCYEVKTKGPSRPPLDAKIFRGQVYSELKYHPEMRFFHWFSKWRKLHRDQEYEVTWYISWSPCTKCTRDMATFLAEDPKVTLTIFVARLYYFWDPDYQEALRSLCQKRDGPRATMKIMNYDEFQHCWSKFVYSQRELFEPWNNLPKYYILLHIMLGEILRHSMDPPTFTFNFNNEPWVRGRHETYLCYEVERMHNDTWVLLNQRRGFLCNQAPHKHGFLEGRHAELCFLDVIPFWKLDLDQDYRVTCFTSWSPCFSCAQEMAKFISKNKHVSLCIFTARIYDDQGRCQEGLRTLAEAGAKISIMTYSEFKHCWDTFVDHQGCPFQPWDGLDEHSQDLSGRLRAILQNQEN

CTTCTTTGGGAGTGAATTAG (ssDNA) [5'-FAM-JL587D 20-mer] was tested. Which Kd [1] did it give?
Its Kd is 238 ± 95 nM.

And the Kd [2]?
The Kd was 1840 ± 390 nM.

And the Kd [3]?
Its Kd is 84.1 ± 7.8 nM.
